Molecular target: T1, human CCR8 (chemokine (C-C motif) receptor 8) (human, UniProt P51685 1-355)
T1 construct: whole, on cells; also called CCR8-CHO-K1 cells; CHOK1-CCR8 cells
Experiment: flow cytometry on CHOK1-CCR8 cells, steps of Example 6

T1 sequence (P51685 whole entry): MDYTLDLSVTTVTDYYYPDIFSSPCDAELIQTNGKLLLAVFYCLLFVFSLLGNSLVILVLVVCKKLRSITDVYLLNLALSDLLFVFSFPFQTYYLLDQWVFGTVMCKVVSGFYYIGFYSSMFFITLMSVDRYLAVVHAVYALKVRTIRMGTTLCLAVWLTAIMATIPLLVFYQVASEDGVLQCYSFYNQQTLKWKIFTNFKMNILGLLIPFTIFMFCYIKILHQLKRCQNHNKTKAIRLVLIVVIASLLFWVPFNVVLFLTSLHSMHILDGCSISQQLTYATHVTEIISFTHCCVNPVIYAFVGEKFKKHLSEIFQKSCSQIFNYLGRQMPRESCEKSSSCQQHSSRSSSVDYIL

Binder | binding result
Hu-2-Z5 (antibody, V domains shown, Humanized from CH-2; also called humanized antibody Hu-2-Z5) VH: QVQLVQSGAEVKKPGASVKVSCKASGYTFTDYEMHWVRQAPGQGLEWMGAIDPETGATAYNQKFKGRVTLTADTSISTAYMELSRLRSDDTVVYYCASRAGGRGRFAYWGQGTLVTVSS VL: EVVMTQSPGTLSLSPGERATLSCRSSQSLVHSSGNTYLHWYQQKPGQSPRLLIYKVSNRFSGIPDRFSGSGSGTDFTLTISRLEPEDFAVYFCSQTTHVPYTFGGGTKLELK | binds
Hu-2-Z1 (antibody, V domains shown, Humanized from CH-2; made by the aforementioned method (human IgG framework); also called humanized antibody Hu-2-Z1) VH: QVQLVQSGAEVKKPGASVKVSCKASGYTFTDYEMHWVRQAPGQGLEWMGAIDPETGATAYNQKFKGRVTSTRDTSISTAYMELSRLRSDDTVVYYCARRAGGRGRFAYWGQGTLVTVSS VL: EIVLTQSPGTLSLSPGERATLSCRSSQSLVHSSGNTYLHWYQQKPGQAPRLLIYKVSNRFSGIPDRFSGSGSGTDFTLTISRLEPEDFAVYYCSQTTHVPYTFGGGTKLELK | binds
Hu-2-Z2 (antibody, V domains shown, Humanized from CH-2; also called humanized antibody Hu-2-Z2) VH: QVQLVQSGAEVKKPGASVKVSCKASGYTFTDYEMHWVRQAPGQGLEWMGAIDPETGATAYNQKFKGRVTSTRDTSISTAYMELSRLRSDDTVVYYCARRAGGRGRFAYWGQGTLVTVSS VL: EVVMTQSPGTLSLSPGERATLSCRSSQSLVHSSGNTYLHWYQQKPGQSPRLLIYKVSNRFSGIPDRFSGSGSGTDFTLTISRLEPEDFAVYFCSQTTHVPYTFGGGTKLELK | binds
Hu-2-Z3 (antibody, V domains shown, Humanized from CH-2; also called humanized antibody Hu-2-Z3) VH: QVQLVQSGAEVKKPGASVKVSCKASGYTFTDYEMHWVRQAPGQGLEWMGAIDPETGATAYNQKFKGRVTSTRDTSISTAYMELSRLRSDDTVVYYCARRAGGRGRFAYWGQGTLVTVSS VL: DVVMTQSPLTLSLSPGERATLSCRSSQSLVHSSGNTYLHWYQQKPGQSPKLLIYKVSNRFSGIPDRFSGSGSGTDFTLTISRLEPEDFAVYFCSQTTHVPYTFGGGTKLELK | binds
Hu-2-Z4 (antibody, V domains shown, Humanized from CH-2; also called humanized antibody Hu-2-Z4) VH: QVQLVQSGAEVKKPGASVKVSCKASGYTFTDYEMHWVRQAPGQGLEWMGAIDPETGATAYNQKFKGRVTLTADTSISTAYMELSRLRSDDTVVYYCASRAGGRGRFAYWGQGTLVTVSS VL: EIVLTQSPGTLSLSPGERATLSCRSSQSLVHSSGNTYLHWYQQKPGQAPRLLIYKVSNRFSGIPDRFSGSGSGTDFTLTISRLEPEDFAVYYCSQTTHVPYTFGGGTKLELK | binds
Hu-2-Z6 (antibody, V domains shown, Humanized from CH-2; also called humanized antibody Hu-2-Z6) VH: QVQLVQSGAEVKKPGASVKVSCKASGYTFTDYEMHWVRQAPGQGLEWMGAIDPETGATAYNQKFKGRVTLTADTSISTAYMELSRLRSDDTVVYYCASRAGGRGRFAYWGQGTLVTVSS VL: DVVMTQSPLTLSLSPGERATLSCRSSQSLVHSSGNTYLHWYQQKPGQSPKLLIYKVSNRFSGIPDRFSGSGSGTDFTLTISRLEPEDFAVYFCSQTTHVPYTFGGGTKLELK | binds
Hu-2-Z7 (antibody, V domains shown, Humanized from CH-2; also called humanized antibody Hu-2-Z7) VH: QVQLVQSGAEVKKPGASVKVSCKASGYTFTDYEMHWVRQAPGQGLEWMGAIDPETGATAYNQKFKGRVTLTADTSISTAYMELSRLRSDDTVVYYCKSRAGGRGRFAYWGQGTLVTVSS VL: EIVLTQSPGTLSLSPGERATLSCRSSQSLVHSSGNTYLHWYQQKPGQAPRLLIYKVSNRFSGIPDRFSGSGSGTDFTLTISRLEPEDFAVYYCSQTTHVPYTFGGGTKLELK | binds
Hu-2-Z8 (antibody, V domains shown, Humanized from CH-2; also called humanized antibody Hu-2-Z8) VH: QVQLVQSGAEVKKPGASVKVSCKASGYTFTDYEMHWVRQAPGQGLEWMGAIDPETGATAYNQKFKGRVTLTADTSISTAYMELSRLRSDDTVVYYCKSRAGGRGRFAYWGQGTLVTVSS VL: EVVMTQSPGTLSLSPGERATLSCRSSQSLVHSSGNTYLHWYQQKPGQSPRLLIYKVSNRFSGIPDRFSGSGSGTDFTLTISRLEPEDFAVYFCSQTTHVPYTFGGGTKLELK | binds
Hu-2-Z9 (antibody, V domains shown, Humanized from CH-2; also called humanized antibody Hu-2-Z9) VH: QVQLVQSGAEVKKPGASVKVSCKASGYTFTDYEMHWVRQAPGQGLEWMGAIDPETGATAYNQKFKGRVTLTADTSISTAYMELSRLRSDDTVVYYCKSRAGGRGRFAYWGQGTLVTVSS VL: DVVMTQSPLTLSLSPGERATLSCRSSQSLVHSSGNTYLHWYQQKPGQSPKLLIYKVSNRFSGIPDRFSGSGSGTDFTLTISRLEPEDFAVYFCSQTTHVPYTFGGGTKLELK | binds
Hu-15-Z6 (antibody, V domains shown, Humanized from CH-15; also called humanized antibody Hu-15-Z6) VH: EVQLVESGGGLVQPGGSLRLSCAASGFTFNTNAMNWVRQAPGKGLEWVGRIRTKSNNYATYYAESVRDRFTISRDDSKNSLYLQMNSLKTEDTAMYYCVRGGYGIRGDYTMDYWGQGTLVTVSS VL: DIVMTQSPPTLSLSPGERATLSCRSSKSLLHSNGNTYLYWFQQKPGQSPQLLIYRMSNLASGIPDRFSGSGSGTDFTLTISRLEPEDFAVYYCMQHLEYPFTFGQGTKLEIK | binds

Second part, the binder after the results:

binding result | Binder
binds | Hu-2-Z10 (antibody, V domains shown, Humanized from CH-2; also called humanized antibody Hu-2-Z10) VH: QVQLVQSGAEVKKPGASVKVSCKASGYTFTDYEMHWVRQAPVRGLEWMGAIDPETGATAYNQKFKGRVTLTADTSISTAYMELSRLRSDDTVVYYCKSRAGGRGRFAYWGQGTLVTVSS VL: EIVLTQSPGTLSLSPGERATLSCRSSQSLVHSSGNTYLHWYQQKPGQAPRLLIYKVSNRFSGIPDRFSGSGSGTDFTLTISRLEPEDFAVYYCSQTTHVPYTFGGGTKLELK
binds | Hu-2-Z11 (antibody, V domains shown, Humanized from CH-2; also called humanized antibody Hu-2-Z11) VH: QVQLVQSGAEVKKPGASVKVSCKASGYTFTDYEMHWVRQAPVRGLEWMGAIDPETGATAYNQKFKGRVTLTADTSISTAYMELSRLRSDDTVVYYCKSRAGGRGRFAYWGQGTLVTVSS VL: EVVMTQSPGTLSLSPGERATLSCRSSQSLVHSSGNTYLHWYQQKPGQSPRLLIYKVSNRFSGIPDRFSGSGSGTDFTLTISRLEPEDFAVYFCSQTTHVPYTFGGGTKLELK
binds | Hu-2-Z12 (antibody, V domains shown, Humanized from CH-2; also called humanized antibody Hu-2-Z12) VH: QVQLVQSGAEVKKPGASVKVSCKASGYTFTDYEMHWVRQAPVRGLEWMGAIDPETGATAYNQKFKGRVTLTADTSISTAYMELSRLRSDDTVVYYCKSRAGGRGRFAYWGQGTLVTVSS VL: DVVMTQSPLTLSLSPGERATLSCRSSQSLVHSSGNTYLHWYQQKPGQSPKLLIYKVSNRFSGIPDRFSGSGSGTDFTLTISRLEPEDFAVYFCSQTTHVPYTFGGGTKLELK
binds | Hu-15-Z1 (antibody, V domains shown, Humanized from CH-15; made by the aforementioned method (human IgG framework); also called humanized antibody Hu-15-Z1) VH: EVQLVESGGGLVQPGGSLRLSCAASGFTFNTNAMNWVRQAPGKGLEWVGRIRTKSNNYATYYAESVRDRFTISRDDSKNSLYLQMNSLKTEDTAVYYCARGGYGIRGDYTMDYWGQGTLVTVSS VL: EIVLTQSPGTLSLSPGERATLSCRSSKSLLHSNGNTYLYWYQQKPGQAPRLLIYRMSNLASGIPDRFSGSGSGTDFTLTISRLEPEDFAVYYCMQHLEYPFTFGQGTKLEIK
binds | Hu-15-Z2 (antibody, V domains shown, Humanized from CH-15; also called humanized antibody Hu-15-Z2) VH: EVQLVESGGGLVQPGGSLRLSCAASGFTFNTNAMNWVRQAPGKGLEWVGRIRTKSNNYATYYAESVRDRFTISRDDSKNSLYLQMNSLKTEDTAVYYCARGGYGIRGDYTMDYWGQGTLVTVSS VL: EIVMTQSPGTLSLSPGERATLSCRSSKSLLHSNGNTYLYWFQQKPGQSPRLLIYRMSNLASGIPDRFSGSGSGTDFTLTISRLEPEDFAVYYCMQHLEYPFTFGQGTKLEIK
binds | Hu-15-Z3 (antibody, V domains shown, Humanized from CH-15; also called humanized antibody Hu-15-Z3) VH: EVQLVESGGGLVQPGGSLRLSCAASGFTFNTNAMNWVRQAPGKGLEWVGRIRTKSNNYATYYAESVRDRFTISRDDSKNSLYLQMNSLKTEDTAVYYCARGGYGIRGDYTMDYWGQGTLVTVSS VL: DIVMTQSPPTLSLSPGERATLSCRSSKSLLHSNGNTYLYWFQQKPGQSPQLLIYRMSNLASGIPDRFSGSGSGTDFTLTISRLEPEDFAVYYCMQHLEYPFTFGQGTKLEIK
binds | Hu-15-Z4 (antibody, V domains shown, Humanized from CH-15; also called humanized antibody Hu-15-Z4) VH: EVQLVESGGGLVQPGGSLRLSCAASGFTFNTNAMNWVRQAPGKGLEWVGRIRTKSNNYATYYAESVRDRFTISRDDSKNSLYLQMNSLKTEDTAMYYCVRGGYGIRGDYTMDYWGQGTLVTVSS VL: EIVLTQSPGTLSLSPGERATLSCRSSKSLLHSNGNTYLYWYQQKPGQAPRLLIYRMSNLASGIPDRFSGSGSGTDFTLTISRLEPEDFAVYYCMQHLEYPFTFGQGTKLEIK
binds | Hu-15-Z5 (antibody, V domains shown, Humanized from CH-15; also called humanized antibody Hu-15-Z5) VH: EVQLVESGGGLVQPGGSLRLSCAASGFTFNTNAMNWVRQAPGKGLEWVGRIRTKSNNYATYYAESVRDRFTISRDDSKNSLYLQMNSLKTEDTAMYYCVRGGYGIRGDYTMDYWGQGTLVTVSS VL: EIVMTQSPGTLSLSPGERATLSCRSSKSLLHSNGNTYLYWFQQKPGQSPRLLIYRMSNLASGIPDRFSGSGSGTDFTLTISRLEPEDFAVYYCMQHLEYPFTFGQGTKLEIK
binds | Hu-15-Z7 (antibody, V domains shown, Humanized from CH-15; also called humanized antibody Hu-15-Z7) VH: EVQLVESGGGLVQPGGSLRLSCAASGFTFNTNAMNWVRQAPGKGLEWVGRIRTKSNNYATYYAESVRDRFTISRDDSKNSLYLQMNSLKTEDTAMYYCVRGGYGIRGDYTMDYWGQGTLVTVSS VL: DIVMTQSPPTLSLSPGERATLSCRSSKSLLHSQGNTYLYWFQQKPGQSPQLLIYRMSNLASGIPDRFSGSGSGTDFTLTISRLEPEDFAVYYCMQHLEYPFTFGQGTKLEIK
binds | Hu-15-Z8 (antibody, V domains shown, Humanized from CH-15; also called humanized antibody Hu-15-Z8) VH: EVQLVESGGGLVQPGGSLRLSCAASGFTFNTNAMNWVRQAPGKGLEWVGRIRTKSNNYATYYAESVRDRFTISRDDSKNSLYLQMNSLKTEDTAMYYCVRGGYGIRGDYTMDYWGQGTLVTVSS VL: DIVMTQSPPTLSLSPGERATLSCRSSKSLLHSNANTYLYWFQQKPGQSPQLLIYRMSNLASGIPDRFSGSGSGTDFTLTISRLEPEDFAVYYCMQHLEYPFTFGQGTKLEIK
binds | Hu-15-Z9 (antibody, V domains shown, Humanized from CH-15; also called humanized antibody Hu-15-Z9) VH: EVQLVESGGGLVQPGGSLRLSCAASGFTFNTNAMNWVRQAPGKGLEWVGRIRTKSNNYATYYAESVRDRFTISRDDSKNSLYLQMNSLKTEDTAMYYCVRGGYGIRGEYTMDYWGQGTLVTVSS VL: DIVMTQSPPTLSLSPGERATLSCRSSKSLLHSNGNTYLYWFQQKPGQSPQLLIYRMSNLASGIPDRFSGSGSGTDFTLTISRLEPEDFAVYYCMQHLEYPFTFGQGTKLEIK

From patent publication US20250243287A1 (SHENGHE CHINA BIOPHARMACEUTICAL, published 2025)
